From patent US20100306864A1 (OTSUKA CHEMICAL, published 2010)

B1: anti-CD20 chimera antibody (wild type) (antibody, human IgG1, kappa)
heavy: not shown
light: QIVLSQSPAILSASPGEKVTMTCRASSSVSYMHWYQQKPGSSPKPWIYAPSNLASGVPARFSGSGSGTSYSLTISRVEAEDAANYYCQQWSFNPPTFGAGTKLELKTVAAPSVFIFPPSDEQLKSGTASVVCLLNNFYPREAKVQWKVDNALQSGNSQESVTEQDSKDSTYSLSSTLTLSKADYEKHKVYACEVTHQGLSSPVTKSFNRGEC
notes: Mouse anti-CD20 variable regions joined to human IgG1 H chain and human L chain constant regions; also called wild type antibody; wild type anti-CD20 chimera antibody; copies: 2 + 2
B2: anti-CD20 chimera antibody H chain constant region amino acid mutant Glu293Cys (antibody, human IgG1, kappa)
heavy: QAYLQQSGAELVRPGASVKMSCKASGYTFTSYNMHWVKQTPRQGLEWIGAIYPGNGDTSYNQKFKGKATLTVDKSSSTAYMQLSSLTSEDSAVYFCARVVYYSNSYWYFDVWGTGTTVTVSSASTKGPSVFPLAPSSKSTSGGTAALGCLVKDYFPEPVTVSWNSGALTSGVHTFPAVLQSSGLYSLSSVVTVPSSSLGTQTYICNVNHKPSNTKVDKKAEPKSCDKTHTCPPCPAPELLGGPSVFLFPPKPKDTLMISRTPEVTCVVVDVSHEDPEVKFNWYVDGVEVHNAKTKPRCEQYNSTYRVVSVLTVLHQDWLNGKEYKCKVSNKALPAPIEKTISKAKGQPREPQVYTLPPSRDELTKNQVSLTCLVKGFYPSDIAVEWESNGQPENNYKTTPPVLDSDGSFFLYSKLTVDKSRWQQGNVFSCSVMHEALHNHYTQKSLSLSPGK
light: B1 light
notes: H chain entry already carries Glu293Cys (Kabat EU index); also called Glu293Cys-modified antibody
B3: anti-CD20 chimera antibody H chain constant region amino acid mutant Glu294Cys (antibody, human IgG1, kappa)
heavy: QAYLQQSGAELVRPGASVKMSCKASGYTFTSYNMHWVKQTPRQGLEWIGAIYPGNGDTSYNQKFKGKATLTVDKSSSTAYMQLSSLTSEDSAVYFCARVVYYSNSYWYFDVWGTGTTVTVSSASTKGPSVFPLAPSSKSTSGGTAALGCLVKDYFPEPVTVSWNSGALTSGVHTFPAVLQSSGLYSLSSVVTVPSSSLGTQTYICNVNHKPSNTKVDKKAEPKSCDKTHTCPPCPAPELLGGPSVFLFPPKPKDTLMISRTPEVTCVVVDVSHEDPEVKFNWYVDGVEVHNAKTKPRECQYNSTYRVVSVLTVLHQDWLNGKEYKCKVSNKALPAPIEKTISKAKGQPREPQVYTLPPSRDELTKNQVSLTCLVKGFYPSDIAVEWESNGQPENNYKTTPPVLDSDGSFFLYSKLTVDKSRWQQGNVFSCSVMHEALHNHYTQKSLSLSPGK
light: B1 light
notes: H chain entry already carries Glu294Cys (Kabat EU index); also called Glu294Cys-modified antibody
B4: anti-CD20 chimera antibody H chain constant region amino acid mutant Ser298Cys (antibody, human IgG1, kappa)
heavy: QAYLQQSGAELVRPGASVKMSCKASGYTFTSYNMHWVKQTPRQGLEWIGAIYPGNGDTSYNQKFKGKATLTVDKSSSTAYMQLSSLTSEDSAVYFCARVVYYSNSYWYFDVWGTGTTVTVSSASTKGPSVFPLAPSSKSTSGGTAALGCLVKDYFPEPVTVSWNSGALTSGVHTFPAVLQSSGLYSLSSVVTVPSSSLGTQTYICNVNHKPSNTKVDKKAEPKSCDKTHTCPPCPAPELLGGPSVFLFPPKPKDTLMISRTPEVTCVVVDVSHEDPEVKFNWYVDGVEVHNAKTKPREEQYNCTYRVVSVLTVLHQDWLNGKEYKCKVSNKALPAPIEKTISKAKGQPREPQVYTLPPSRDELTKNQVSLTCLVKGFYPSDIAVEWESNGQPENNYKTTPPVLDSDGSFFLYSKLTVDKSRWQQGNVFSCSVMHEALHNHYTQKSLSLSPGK
light: B1 light
notes: H chain entry already carries Ser298Cys (Kabat EU index); also called Ser298Cys mutant; Ser298Cys-modified antibody; copies: 2 + 2
B5: anti-CD20 chimera antibody H chain constant region amino acid mutant Tyr296Cys (antibody, human IgG1, kappa)
heavy: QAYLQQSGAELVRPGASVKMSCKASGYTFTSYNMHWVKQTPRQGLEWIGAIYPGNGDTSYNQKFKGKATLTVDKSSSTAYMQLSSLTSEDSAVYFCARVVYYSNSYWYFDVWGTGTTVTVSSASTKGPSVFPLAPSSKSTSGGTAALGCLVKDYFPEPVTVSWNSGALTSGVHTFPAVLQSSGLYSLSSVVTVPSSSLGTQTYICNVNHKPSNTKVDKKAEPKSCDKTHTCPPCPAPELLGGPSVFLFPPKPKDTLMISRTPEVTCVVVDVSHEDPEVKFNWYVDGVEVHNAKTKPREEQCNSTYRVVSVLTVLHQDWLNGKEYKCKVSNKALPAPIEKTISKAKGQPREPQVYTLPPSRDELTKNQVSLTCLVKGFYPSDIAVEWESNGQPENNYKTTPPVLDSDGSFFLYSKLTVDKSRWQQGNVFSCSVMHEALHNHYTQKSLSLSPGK
light: B1 light
notes: H chain entry already carries Tyr296Cys (Kabat EU index); also called Tyr296Cys mutant; Tyr296Cys-modified antibody; copies: 2 + 2
B6: anti-CD20 chimera antibody H chain constant region amino acid mutant Tyr300Cys (antibody, human IgG1, kappa)
heavy: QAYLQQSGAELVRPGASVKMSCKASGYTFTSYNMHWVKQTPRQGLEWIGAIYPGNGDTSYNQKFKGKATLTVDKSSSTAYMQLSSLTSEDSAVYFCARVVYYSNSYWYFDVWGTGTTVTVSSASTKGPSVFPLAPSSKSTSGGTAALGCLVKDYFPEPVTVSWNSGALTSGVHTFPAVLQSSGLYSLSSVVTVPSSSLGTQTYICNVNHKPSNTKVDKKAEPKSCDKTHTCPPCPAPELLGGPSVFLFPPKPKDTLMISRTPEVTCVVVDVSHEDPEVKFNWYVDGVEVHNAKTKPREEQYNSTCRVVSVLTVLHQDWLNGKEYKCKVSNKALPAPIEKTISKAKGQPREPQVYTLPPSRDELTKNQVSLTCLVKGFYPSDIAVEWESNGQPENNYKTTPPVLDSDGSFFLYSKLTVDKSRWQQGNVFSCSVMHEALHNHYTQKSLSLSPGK
light: B1 light
notes: H chain entry already carries Tyr300Cys (Kabat EU index); also called Tyr300Cys-modified antibody

The binders below were run against T1, CD20 (on Daudi cells) (human, UniProt P11836 1-297) (assay: cell ELISA on Daudi cells, HRP anti-human IgG, OD450).
T1 construct: whole, on cells; The target is the CD20 naturally present on Daudi cells; also called antigen
T1 sequence (looked up): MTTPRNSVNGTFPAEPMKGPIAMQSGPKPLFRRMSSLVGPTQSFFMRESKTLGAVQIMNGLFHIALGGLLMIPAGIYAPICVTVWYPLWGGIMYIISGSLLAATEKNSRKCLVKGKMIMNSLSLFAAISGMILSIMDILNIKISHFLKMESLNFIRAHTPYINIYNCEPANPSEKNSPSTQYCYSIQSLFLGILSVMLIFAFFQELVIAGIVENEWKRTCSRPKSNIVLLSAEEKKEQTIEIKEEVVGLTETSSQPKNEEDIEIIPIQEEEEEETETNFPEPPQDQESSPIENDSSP
Method: Daudi cells (ATCC catalog No. CCL-213) were dispensed into a 96 well plate at a density of 6×10⁴ cells/well, each of the antibody mutants (Glu293Cys, Glu294Cys, Tyr296Cys, Ser298Cys, or Tyr300Cys) obtained in Example 1 or wild type antibody was added thereto, and a reaction was carried out at 4° C. for 1 hour. Following this, washing was carried out with 3 mM EDTA-0.5% BSA-PBS(−) (washing buffer). Subsequently, 50 μL/well of an HRP-labeled anti-human IgG antibody (Zymed) diluted 500 times with the washing buffer was added, and a reaction was carried out at 4° C. for 1 hour. Cells after the reaction were washed with the washing buffer, 100 μL/well of TMB substrate (KPL) was added thereto so as to cause coloration, the reaction was stopped by adding 100 μL/well of 1 M HCl (Wako), and the OD value at 450 nm was measured using a plate reader (VersaMax, Molecular Devices).

**Q.** Does B1 bind?
**A.** binds

**Q.** Does B2 bind?
**A.** binds

**Q.** Does B3 bind?
**A.** binds

**Q.** Does B4 bind?
**A.** binds

**Q.** Does B5 bind?
**A.** binds

**Q.** Does B6 bind?
**A.** binds

These binders were tested against T2, CD16 (NK cell Fcy receptor III), expressed on CHO-K1 cells (human, UniProt P08637 17-254) (assay: flow cytometry on CD16-expressing CHO-K1 cells; biotin anti-human IgG kappa L chain antibody and PE-streptavidin).
T2 construct: whole, on cells; also called CD16-expressing CHO-K1 cells
Method: CD16-expressing CHO-K1 cells were taken at 6×10⁴ cells/tube, each of the antibody mutants obtained in Example (Tyr296Cys or Ser298Cys) or wild type antibody was added thereto to give a total amount of 50 μL/tube, and a reaction was carried out at 4° C. for 1 hour. Following this, washing was carried out with 3 mM EDTA-0.5% BSA-PBS(−) (washing buffer). Subsequently, a biotin-labeled mouse anti-human IgGκ L chain antibody (Vector Lab) diluted 200 times with the washing buffer was added at 100 μL/tube. After a reaction was carried out at 4° C. for 30 min, washing was carried out with 3 mM EDTA-0.5% BSA-PBS(−), PE-labeled streptavidin (BD-Pharmingen) diluted 400 times with the washing buffer was added at 100 μL/tube, and a reaction was carried out at 4° C. for 30 min. After the reaction was completed, washing was carried out twice with 3 mM EDTA-0.5% BSA-PBS(−), and a CD16-binding anti-CD20 antibody was analyzed using a flow cytometer (FACS Caliber, BecktonDickinson).

T2 sequence (P08637 17-254): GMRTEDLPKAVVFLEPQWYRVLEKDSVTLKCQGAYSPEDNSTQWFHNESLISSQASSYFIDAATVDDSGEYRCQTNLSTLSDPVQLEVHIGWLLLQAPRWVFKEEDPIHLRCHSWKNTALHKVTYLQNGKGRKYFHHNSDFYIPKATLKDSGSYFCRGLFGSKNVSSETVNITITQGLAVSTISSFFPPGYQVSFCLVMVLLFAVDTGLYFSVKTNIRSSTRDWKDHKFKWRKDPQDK

**Q.** How did the “CD16 binding activity relative to wild type (concentrations that gave the same effect)” value turn out when B4 was run?
**A.** ~10 times that of the wild type

**Q.** B5 was tested. Which “CD16 binding activity relative to wild type (concentrations that gave the same effect)” value did it give?
**A.** ~5 times that of the wild type
